Tests used:
Assay in all cases: EMSA
Settings in all cases: 20 mM Tris pH 7.5, 200 mM NaCl, 1 ug salmon sperm DNA, 10 fmol probe, 20 ul, room temperature 10 min; 10% polyacrylamide gel
[1] = target: T1, EBNA1 395-641 (Epstein-Barr virus) (UniProt P03211)
T1 sequence: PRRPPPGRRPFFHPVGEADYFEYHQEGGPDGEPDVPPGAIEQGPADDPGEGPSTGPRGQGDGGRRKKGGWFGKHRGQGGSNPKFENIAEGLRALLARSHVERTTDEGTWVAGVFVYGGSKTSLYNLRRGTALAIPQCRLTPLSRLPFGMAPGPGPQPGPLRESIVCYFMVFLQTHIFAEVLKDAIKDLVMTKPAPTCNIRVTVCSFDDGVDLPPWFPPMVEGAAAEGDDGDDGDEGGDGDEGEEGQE

[2] = target: EBNA1 452-641;USP7 (Epstein-Barr virus;human?) (UniProt P03211+Q93009)
EBNA1 452-641;USP7 (Epstein-Barr virus;human?), sequence (Q93009 whole entry, one chain of several): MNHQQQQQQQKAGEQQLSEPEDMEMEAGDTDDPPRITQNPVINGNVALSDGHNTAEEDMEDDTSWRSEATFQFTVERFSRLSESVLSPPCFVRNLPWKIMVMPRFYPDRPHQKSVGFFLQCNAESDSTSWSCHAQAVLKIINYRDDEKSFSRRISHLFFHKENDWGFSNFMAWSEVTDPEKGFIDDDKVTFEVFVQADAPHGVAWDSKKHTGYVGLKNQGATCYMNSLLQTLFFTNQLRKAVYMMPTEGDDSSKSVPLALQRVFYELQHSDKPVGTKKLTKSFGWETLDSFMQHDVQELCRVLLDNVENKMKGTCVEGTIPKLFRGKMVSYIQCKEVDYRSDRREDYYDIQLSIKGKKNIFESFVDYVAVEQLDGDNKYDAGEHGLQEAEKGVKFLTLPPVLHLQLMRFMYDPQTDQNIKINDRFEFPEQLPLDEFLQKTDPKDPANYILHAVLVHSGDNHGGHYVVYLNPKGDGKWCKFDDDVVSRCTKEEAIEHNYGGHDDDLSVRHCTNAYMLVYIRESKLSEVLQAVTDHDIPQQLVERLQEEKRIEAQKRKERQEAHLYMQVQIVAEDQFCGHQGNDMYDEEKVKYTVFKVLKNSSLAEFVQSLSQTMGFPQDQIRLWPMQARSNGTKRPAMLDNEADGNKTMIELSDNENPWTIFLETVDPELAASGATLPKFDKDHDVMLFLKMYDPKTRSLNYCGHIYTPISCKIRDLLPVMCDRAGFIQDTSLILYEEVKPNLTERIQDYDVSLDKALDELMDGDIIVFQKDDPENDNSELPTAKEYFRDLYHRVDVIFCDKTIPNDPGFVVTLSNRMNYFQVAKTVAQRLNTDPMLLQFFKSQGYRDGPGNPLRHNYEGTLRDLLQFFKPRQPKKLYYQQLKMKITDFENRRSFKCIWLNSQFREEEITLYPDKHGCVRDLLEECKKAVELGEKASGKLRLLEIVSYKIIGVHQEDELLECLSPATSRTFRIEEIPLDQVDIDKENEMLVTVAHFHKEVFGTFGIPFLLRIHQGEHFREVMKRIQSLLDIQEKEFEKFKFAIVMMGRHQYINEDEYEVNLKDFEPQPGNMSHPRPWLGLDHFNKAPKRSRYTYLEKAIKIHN

[3] = target: EBNA1 395-641;USP7 (Epstein-Barr virus;human?) (UniProt P03211+Q93009)
EBNA1 395-641;USP7 (Epstein-Barr virus;human?), sequence (Q93009 whole entry, one chain of several): as above

In the case of “CGGGAAGCATATGCTACCCG (double strand) [DS site 1 20-mer]”, the Kd [1] is reported as 0.233 µM, the binding signal (fold increase vs P3 alone) [2] is reported as 4 and the Kd [3] is reported as 0.004 µM.
